Data on four molecules can be found in patent US20160244529A1 (ROTTAPHARM BIOTECH S R L, published 2016).

“And” between values parts separate entries of the source, which are not always exact repeats. Equal entries are not always repeated.

The target in experiment [1] is T1, human TrkA receptor (native, on TF-1 cells) (human, UniProt P04629 33-796).
T1 construct: also called TF1 expressing TrkA receptor; TF-1 cell line expressing human TrkA receptor
Nature of the experiment: chip-based flow cytometry (Agilent Bioanalyzer 2100) on TF-1 cells expressing human TrkA; scFv at 5 µg/ml per paragraph 159. How it is done: FIG. 5. FACS analysis performed with Bioanalyzer 2100. A cell fluid chip-based fluorescent cytometric assay that runs on Bioanalyzer 2100 (Agilent) for fast characterization of small population cell phenotypes was assessed. The assay determines the expression of specific cell surface markers. In this experiment, the specificity of scFvs on TF-1 cell line expressing human TrkA receptor was assessed. Six samples can be analyzed on each chip in one automated process. Results were in good agreement with conventional flow cytometry in quantisation.
10⁶ cells/sample=tot: 6×10⁶ cells are first centrifuged at 350 g for 5 min at room temperature (RT) and wash with 12 ml of Staining Buffer (SB) at RT. The pellet was resuspended in 3 ml of SB at 4° C. and aliquot 0.5 ml of suspension in 1.5 ml conical tubes. Cells were centrifuged again at 350 g for 5 min at 4° C. and the pellet was resuspended in 1 ml HBSS at 4° C. 125 μl 16% p-formaldehyde (final conc 1.7%) was added into each tube and then the sample was incubated for 10 min at 4° C. on tube rotator. After 10 minutes, 75 μl of 10% detergent solution-Tween 20 (final conc 0.6%) was added and the samples were then incubated for 10 min at 4° C. on tube rotator. Samples were then washed once with FACS Buffer (0.8 ml/sample) at 4° C. and then centrifuged at 350 g for 5 min at 4° C. Cells were resuspended with 80 μl/sample of FACS Buffer. 20 μl of a 5× primary antibody solution were added (final concentration of scFvs is 5 μg/ml). After incubation for 1 hour at 4° C. on tube rotator samples were washed with FACS Buffer (0.5 ml/sample) at 4° C. and then centrifuged 5 min at 350 g at 4° C. Cells were resuspended with 80 μl/sample of FACS Buffer. 20 μl of a 5× secondary antibody solution were added. Final concentration of mouse anti-V5 antibody is 0.20 μg/ml. The samples were incubated for 1 hour at 4° C. on tube rotator. After incubation for 1 hour at 4° C. on tube rotator samples were washed with FACS Buffer (0.5 ml/sample) at 4° C. and then centrifuged 5 min at 350 g at 4° C. Cells were resuspended with 80 μl/sample of FACS Buffer. 20 μl of a 5× tertiary antibody solution were added. Final concentration of anti-mouse IgG-Cy5 is 4 μg/ml (1:250 diluted). The samples were incubated for 1 hour at 4° C. on tube rotator.
A general note: Flow cytometry measures light scatter and fluorescence of single cells or particles in a stream.

For experiment [2], the target named is T2, mouse Ig1,2 TrkA (recombinant D4-D5 domain of murine TrkA receptor) (mouse, UniProt Q3UFB7 193-413).
T2 construct: also called mTrkA Ig1,2
Nature of the experiment: SPR (Biacore X-100); scFv immobilised on CM5 chip, mouse Ig1,2 TrkA injected. How it is done:
(§1) The antibodies were also shown to be specific for hTrkA and mTrkA by relative binding to the BIACore sensor chips coated with the appropriate antigen. Antibodies were immobilized by ammine coupling to Biosensor CM5 sensorchips (Pharmacia) according to the manufacturers instructions. Anti-TrkA scFv proteins were diluted at 20-50 μg/ml in suitable pre-concentration buffer (at least 2 pH unit below the pI of the scFv in order to get a net positive charge), chosen among the Acetate buffers. The scFvs were immobilized at 100 RU to get a low density immobilization. As binder, the recombinant protein consisting of D4-D5 domain of human and murine TrkA receptor (hTrkA Ig1,2 and mTrkA Ig1,2 respectively) were injected over the immobilized scFv with a contact time of 60 seconds and with a dissociation time of 400 seconds and the assay workflow placed 5 serial dilutions of the TrkA Ig1,2 (starting in the micromolar range and diluting 1:2 each time). The regeneration condition were mild (contact time 30 seconds, 10 mM Glycine pH2). On the basis of the resulting sensorgrams, the concentrations of TrkA Ig1,2 were adjusted to optimize, contact time, dissociation time and regeneration. Data were analysed by Bioevaluation Software (see results on Table II and Table III). The quality of the data fitting were checked by the value of Chi² and of the U-value.
(§2) We have carried out surface plasmon resonance (SPR) analyses to determine the binding kinetics of a panel of isolated anti-TrkA scFvs (SEQ ID NOs: 1, 2, 3, 4, 5, 6, 7, 8, 9, 10, 11, 12, 13, 14, 15 and 16). The scFvs were immobilized on a CM5 chip followed by injections at various concentration of human and murine Ig 1,2 TrkA (SEQ ID NO: 78) and mouse Ig1,2 TrkA (SEQ ID NO: 79).

For experiment [3], the target named is T3, human Ig1,2 TrkA (recombinant D4-D5 domain of human TrkA receptor) (human, UniProt P04629 191-392).
T3 construct: also called hTrkA Ig1,2; TrkA Ig1,2
T3 chain: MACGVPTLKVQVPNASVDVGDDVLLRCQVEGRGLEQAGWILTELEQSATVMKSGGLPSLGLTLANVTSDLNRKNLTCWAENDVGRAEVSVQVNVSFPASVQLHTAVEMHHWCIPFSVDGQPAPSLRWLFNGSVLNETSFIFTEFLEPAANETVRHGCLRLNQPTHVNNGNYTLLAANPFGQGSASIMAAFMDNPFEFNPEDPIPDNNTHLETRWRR
Nature of the experiment: SPR (Biacore X-100); scFv immobilised on CM5 chip, human Ig1,2 TrkA injected. How it is done: as §1, §2
A general note: Surface plasmon resonance follows binding to a sensor surface in real time, without labels.

For another experiment, the target named is T4, human TrkC immunoadhesin (human; Camelus dromedarius, UniProt Q16288 32-429).
T4 construct: extracellular domain; also called hTrkC-Fc; TrkC immunoadhesins; not shown: Fc portion (immunoglobulin heavy chain constant region) of IgG2a camel antibody (Camelus dromedarius)
Put plainly: specificity ELISA, antigens coated at 2 µg/mL, scFv at 50 ug/mL (upper panel) and 5 ug/mL (lower panel), OD 450 nm. How it is done: (§3) FIG. 3. Specificity ELISA of isolated anti-TrkA scFvs versus human TrkA immunoadhesin (hTrkA-Fc), human TrkB immunoadhesins (hTrkB-Fc), human TrkC immunoadhesins (hTrkC-Fc) and human p75 immunoadhesins (hp75-Fc). Human antigens were coated at 2 μg/mL. Anti-TrkA scFvs were used at 50 μg/mL (upper panel) and/or 5 μg/mL (lower panel). The mean absorbance at 450 nm of the experiments performed in duplicate wells is shown with SD indicated by the bars.
(ELISA stands for enzyme-linked immunosorbent assay.)

A further experiment has as its target T5, human p75 immunoadhesin (human; Camelus dromedarius, UniProt P08138 29-250).
T5 construct: extracellular domain; also called hp75-Fc; p75NTR immunoadhesin; not shown: Fc portion (immunoglobulin heavy chain constant region) of IgG2a camel antibody (Camelus dromedarius)
T5 sequence (looked up): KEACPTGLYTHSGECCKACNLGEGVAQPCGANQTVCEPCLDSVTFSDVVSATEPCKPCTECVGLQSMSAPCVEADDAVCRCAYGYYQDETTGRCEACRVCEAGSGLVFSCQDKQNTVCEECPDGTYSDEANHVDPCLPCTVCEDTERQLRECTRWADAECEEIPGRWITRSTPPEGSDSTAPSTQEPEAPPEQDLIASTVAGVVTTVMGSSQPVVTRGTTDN
Described as above. How it is done: as §3

The next experiment concerns the target T6, human TrkB immunoadhesin (human; Camelus dromedarius, UniProt Q16620 32-430).
T6 construct: extracellular domain; also called hTrkB-Fc; TrkB immunoadhesins; not shown: Fc portion (immunoglobulin heavy chain constant region) of IgG2a camel antibody (Camelus dromedarius)
The experiment is described as above. How it is done: as §3

The target of experiment [4] is T2, mouse Ig1,2 TrkA (recombinant D4-D5 …). Nature of the experiment: SPR (Biacore X-100) kinetic analysis.
For experiment [5], the target named is T3, human Ig1,2 TrkA (recombinant D4-D5 …). Put plainly: SPR (Biacore X-100) kinetic analysis.
The target in experiment [6] is T1, human TrkA receptor (native, on TF-1 …). Nature of the experiment: cell-based or functional assay.

T2 sequence (Q3UFB7 other isoform, or with tags, fused parts or gaps limits assumed): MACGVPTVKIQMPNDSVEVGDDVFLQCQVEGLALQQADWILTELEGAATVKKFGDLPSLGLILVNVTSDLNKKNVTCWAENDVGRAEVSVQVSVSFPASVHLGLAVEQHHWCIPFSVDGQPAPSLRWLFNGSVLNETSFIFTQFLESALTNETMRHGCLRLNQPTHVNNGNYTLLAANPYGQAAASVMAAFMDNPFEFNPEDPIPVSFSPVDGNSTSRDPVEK
T6 sequence (Q16620 32-430): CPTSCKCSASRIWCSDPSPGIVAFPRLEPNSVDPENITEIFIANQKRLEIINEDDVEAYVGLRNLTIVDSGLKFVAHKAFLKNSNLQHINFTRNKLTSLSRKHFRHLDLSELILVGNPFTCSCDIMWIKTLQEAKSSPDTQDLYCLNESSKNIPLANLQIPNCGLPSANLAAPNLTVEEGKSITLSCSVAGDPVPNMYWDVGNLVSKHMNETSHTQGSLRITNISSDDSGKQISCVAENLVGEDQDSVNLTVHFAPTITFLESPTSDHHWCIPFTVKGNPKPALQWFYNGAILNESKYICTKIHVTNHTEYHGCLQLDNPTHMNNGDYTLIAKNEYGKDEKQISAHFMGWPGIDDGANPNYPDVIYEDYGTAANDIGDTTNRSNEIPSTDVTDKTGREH
T1 sequence (P04629 33-796 limits assumed): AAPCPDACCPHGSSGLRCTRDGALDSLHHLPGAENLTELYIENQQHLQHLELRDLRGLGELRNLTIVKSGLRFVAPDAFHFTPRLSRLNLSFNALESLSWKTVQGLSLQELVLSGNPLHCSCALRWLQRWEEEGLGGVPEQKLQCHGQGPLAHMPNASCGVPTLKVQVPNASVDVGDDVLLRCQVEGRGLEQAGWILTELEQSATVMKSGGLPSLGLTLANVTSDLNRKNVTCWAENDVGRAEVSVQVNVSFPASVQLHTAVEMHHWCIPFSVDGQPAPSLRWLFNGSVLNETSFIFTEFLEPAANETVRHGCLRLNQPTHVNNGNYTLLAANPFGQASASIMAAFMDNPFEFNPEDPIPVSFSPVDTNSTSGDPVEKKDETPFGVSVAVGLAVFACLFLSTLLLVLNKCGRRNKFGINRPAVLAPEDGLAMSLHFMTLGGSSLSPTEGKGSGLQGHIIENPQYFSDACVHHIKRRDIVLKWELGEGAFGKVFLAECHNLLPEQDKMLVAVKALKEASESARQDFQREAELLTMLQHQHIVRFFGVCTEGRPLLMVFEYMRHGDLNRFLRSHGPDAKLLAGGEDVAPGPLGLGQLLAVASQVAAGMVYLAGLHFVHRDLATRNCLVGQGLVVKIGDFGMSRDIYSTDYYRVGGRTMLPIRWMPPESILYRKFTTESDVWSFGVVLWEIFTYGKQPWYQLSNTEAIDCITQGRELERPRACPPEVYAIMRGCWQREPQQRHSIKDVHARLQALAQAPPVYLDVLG

B1: anti-TrkA scFv CRB0022 (scFv)
scFv: DIVLTQSPALMSASPGEKVTMTCSASSSVSYMYWYQQKPRSSPKPWIYLTSNLASGVPARFSGSGSGTSYSLTISSMEAEDAATYYCQQWSSNPYTFGGRTRLEIKPSGGSTSGSGKPGSGEDSSGAQVQLQQSGAELVKPGASVELSCTASGFNIKDTYMHWVKQRPEQGLEWIGGIDPANGNTIYVPKFQGKATITADTSSNTAYLQLSSLTSEDTAVYYCARGGYDFDYAMDYWGQGTSVTVSS
notes: From mSPLINT selection
On to B1, for which the binding result in [1] is given as “binds”; with human TrkC immunoadhesin, “no binding (tested: 50 ug/mL)”; with human p75 immunoadhesin it was “no binding (tested: 50 ug/mL)”; with human TrkB immunoadhesin, “no binding (tested: 50 ug/mL)”. The results for the Kd in experiment [2] and in experiment [3] were 1.16 nM and 3.2 nM, respectively. The figures for the koff in experiment [2] and in [3] were 1.09e-05 s⁻¹ and 2.94e-05 s⁻¹, respectively. The kon (in general, a measure of how fast the partners come together) in [2] was 9430 M⁻¹ s⁻¹; in experiment [3], 9190 M⁻¹ s⁻¹.

B2: anti-TrkA scFv CRB0072 (scFv)
scFv: DIQMTQSPISLSATVGDRVTITCRASQSIGRYLNWYQQKPGKAPKLLIYGASSLESGVPSRFSGSGSGTVFTLTISGLQPEDFATYCCQQSHSTAWTFGQGTKVEIKSGGSTSGSGKPGSGEGSSGTEVQLVETGGGLVQPGSSLRLSCATSGFTFINYGVHWVRQPPGKGLEWVASIWYEGSNEKYADSVKGRFTISRDNSRYTLHLQLNSLRAEDTADYYCVRDRGTGDYRNSRFYYGMDVWGQGTTVTVSS
notes: From hSPLINT_09 selection
As for B2, the binding result in [1] was “binds”; in the experiment with human TrkC immunoadhesin, “no binding (tested: 50 ug/mL)”; with human p75 immunoadhesin, “no binding (tested: 50 ug/mL)”; with human TrkB immunoadhesin, “no binding (tested: 50 ug/mL)”. The dissociation constant Kd (in general, the free concentration of one partner at which half of the binding sites on the other are occupied at equilibrium, for simple one-to-one binding) was 17 nM in experiment [2] and 2.04 nM in experiment [3]. Moreover, the results for the koff in [2] and in experiment [3] were 4.93e-05 s⁻¹ and 7.48e-06 s⁻¹, respectively. The kon in experiment [2] stood at 2910 M⁻¹ s⁻¹; in experiment [3] it was 3680 M⁻¹ s⁻¹.

B3: anti-TrkA scFv CRB0088 (scFv)
scFv: QPVLTQSPPASASLGASVKLTCTLSSGHSSYAIAWHQQQPEKGPRYLMKVNSDGSHNKGDGIPDRFSGSRSGAERYLTISSLHSEDEADYYCQTWGAGGVVFGGGTKLTVLSGGSTSGSGKPGSGEGSSGTEVQLLESGGGLVQPGGSLRLSCAASGFTFSDHYMDWVRQAPGKGLEWVGRIRNKANSYTTEYAASVKGRFTISRDDSKKTLYLQMTSLKTDDTALYYCARDLGASDAFDLWGQGTMVTVSS
notes: From hSPLINT_09 selection
In the case of B3, the binding result is on record as “binds” in experiment [1], “no binding (tested: 50 ug/mL)” in the experiment with human TrkC immunoadhesin, “no binding (tested: 50 ug/mL)” in the experiment with human p75 immunoadhesin and “no binding (tested: 50 ug/mL)” in the experiment with human TrkB immunoadhesin. For the same molecule, the Kd was determined as 38.5 nM in experiment [2] and 1.16 nM in experiment [3]. Further, the values for the koff in experiment [2] and in experiment [3] were 0.000131 s⁻¹ and 3.2e-06 s⁻¹, respectively. For the same molecule, the values for the kon in [2] and in experiment [3] were 3410 M⁻¹ s⁻¹ and 2760 M⁻¹ s⁻¹, respectively.

B4: CRB0089_IgG4 (antibody, V domains shown)
VH: QVQLQESGPGLVKPSQTLSLTCAISGDSVSSNSAAWNWIRQSPSRGLEWLGRTFHRSRWYNEYPVSVRSRITINPDTSNNQFTLQLNSVTPDDTAVYYCARAPVAGLTFDIWGQGTMVTVSS
VL: QTVVTQEPSVSGAPGQRVTISCTGSSSIIGAGYEVHWYQHLPGTAPKLLIYDSINRPSGVPDRFSGSKSGTSASLAITGLQAEDEADYYCQSSAIFGGGTKLTVL
notes: Whole human IgG4 made in CHO-S cells; also called mAb CRB0089_IgG4; anti-TrkA CRB0089_IgG4
Regarding B4, in experiment [4], the Kd was determined as 27.6 nM, the koff (commonly the first-order rate constant of dissociation) was 0.000136 s⁻¹ and the kon turned out to be 4950 M⁻¹ s⁻¹. In [5], the Kd was 16.1 nM, the koff turned out to be 0.000103 s⁻¹ and the kon worked out at 6420 M⁻¹ s⁻¹. In [6], the “IC50 of inhibition of NGF-mediated TF1 cell proliferation (MTT assay)” value was ~43 nM and ~40 nM.
